{
  "source": "patent US20100105141",
  "assay_in_all_cases": "SPR",
  "key": {"[1]": {"test_system": "L7-1C03-A5 (EsR1) L55M,H64A,F67V,S85I,F86M,H100C,R104G,P105F,K108Q,L113A,Q116S,N129H,L134M,S135Q,V137A,H139I,E147L,H151L,L170V,I174L,F177N (synthetic)", "conditions": "ka 4.7e4 M-1 s-1, kd 7.8e-3 s-1"}, "[2]": {"test_system": "L7-3E03-D1 (EsR4) L55M,H64A,F67Y,F86M,H100C,R104G,P105F,K108Q,L113A,Q116S,N129H,L131M,L134M,S135Q,V137A,H139I,F140Y,E147L,H151L,L170V,I174L,F177K (synthetic)", "conditions": "ka 5.5e4 M-1 s-1, kd 1.1e-2 s-1"}, "[3]": {"biological_target": "L7-1G06-B2 L55M,H64A,F67Y,F86M,H100C,R104G,P105F,K108Q,L113A,Q116S,L117M,L134M,S135Q,H139I,F140Y,E147L,H151L,L170V,I174L,F177K (synthetic) (UniProt P04483)", "conditions": "ka 4.6e4 M-1 s-1, kd 1.9e-2 s-1"}, "[4]": {"biological_target": "L7-1F08-A11 (L7-A11, EsR2) L55M,H64A,F67Y,F86M,H100C,R104G,P105F,K108Q,L113A,Q116S,L134M,S135Q,H139I,F140Y,E147L,H151L,L170V,I174L,F177K (synthetic) (UniProt P04483)", "conditions": "ka 7.1e4 M-1 s-1, kd 1.7e-2 s-1"}, "[5]": {"biological_target": "wt TetR(B) (Tn10, Gly inserted after Met1) (Escherichia coli) (UniProt P04483)", "conditions": "ka 3.3e5 M-1 s-1, kd 3.0e-3 s-1; operator sequence used on chip not stated"}},
  "data": [
    {"substance": "tet operator (Biacore)", "values": [
      {"measurement": "Kd", "setting": "[1]", "value": 150, "unit": "nM"},
      {"measurement": "Kd", "setting": "[2]", "value": 200, "unit": "nM"},
      {"measurement": "Kd", "setting": "[3]", "value": 430, "unit": "nM"},
      {"measurement": "Kd", "setting": "[4]", "value": 250, "unit": "nM"},
      {"measurement": "Kd", "setting": "[5]", "value": 9, "unit": "nM"}
    ]}
  ]
}
